Reference: patent US20140213513A1 (Sanofi, priority 2012, published 2014)
*1 amine or outer side, *2 acyl side, *3 side chain or, on linkers, in order; H or OH if unused. Where no end group is shown, it is not given here. Side-chain parts run from the residue outwards. [ ]: non-standard residue; d: D form. The star is where a group is joined. γGlu = O=C(O)[C@H](CCC(=O)[*:2])N[*:1]; Stearoyl = CCCCCCCCCCCCCCCCCC(=O)*; Palmitoyl = CCCCCCCCCCCCCCCC(=O)*; Aib = CC(C)(N)C(=O)O

B1: exendin-4 peptide analogue SEQ ID NO: 29 (peptide)
peptide: Y[Aib]EGTFTSDLSIQK([γGlu-Stearoyl])ESKAA[Aib]EFIEWLKAGGPSSGAPPPS-NH2
modifications: N-terminus assumed
SMILES: CCCCCCCCCCCCCCCCCC(=O)N[C@@H](CCC(=O)NCCCC[C@H](NC(=O)[C@H](CCC(N)=O)NC(=O)[C@@H](NC(=O)[C@H](CO)NC(=O)[C@H](CC(C)C)NC(=O)[C@H](CC(=O)O)NC(=O)[C@H](CO)NC(=O)[C@@H](NC(=O)[C@H](Cc1ccccc1)NC(=O)[C@@H](NC(=O)CNC(=O)[C@H](CCC(=O)O)NC(=O)C(C)(C)NC(=O)[C@@H](N)Cc1ccc(O)cc1)[C@@H](C)O)[C@@H](C)O)[C@@H](C)CC)C(=O)N[C@@H](CCC(=O)O)C(=O)N[C@@H](CO)C(=O)N[C@@H](CCCCN)C(=O)N[C@@H](C)C(=O)N[C@@H](C)C(=O)NC(C)(C)C(=O)N[C@@H](CCC(=O)O)C(=O)N[C@@H](Cc1ccccc1)C(=O)N[C@H](C(=O)N[C@@H](CCC(=O)O)C(=O)N[C@@H](Cc1c[nH]c2ccccc12)C(=O)N[C@@H](CC(C)C)C(=O)N[C@@H](CCCCN)C(=O)N[C@@H](C)C(=O)NCC(=O)NCC(=O)N1CCC[C@H]1C(=O)N[C@@H](CO)C(=O)N[C@@H](CO)C(=O)NCC(=O)N[C@@H](C)C(=O)N1CCC[C@H]1C(=O)N1CCC[C@H]1C(=O)N1CCC[C@H]1C(=O)N[C@@H](CO)C(N)=O)[C@@H](C)CC)C(=O)O
B2: exendin-4 peptide analogue SEQ ID NO: 28 (peptide)
peptide: Y[Aib]HGTFTSDLSKQK([γGlu-Palmitoyl])EKRAA[Aib]EFIEWLKNTGPSSGAPPPS-NH2
modifications: N-terminus assumed
SMILES: CCCCCCCCCCCCCCCC(=O)N[C@@H](CCC(=O)NCCCC[C@H](NC(=O)[C@H](CCC(N)=O)NC(=O)[C@H](CCCCN)NC(=O)[C@H](CO)NC(=O)[C@H](CC(C)C)NC(=O)[C@H](CC(=O)O)NC(=O)[C@H](CO)NC(=O)[C@@H](NC(=O)[C@H](Cc1ccccc1)NC(=O)[C@@H](NC(=O)CNC(=O)[C@H](Cc1c[nH]cn1)NC(=O)C(C)(C)NC(=O)[C@@H](N)Cc1ccc(O)cc1)[C@@H](C)O)[C@@H](C)O)C(=O)N[C@@H](CCC(=O)O)C(=O)N[C@@H](CCCCN)C(=O)N[C@@H](CCCNC(=N)N)C(=O)N[C@@H](C)C(=O)N[C@@H](C)C(=O)NC(C)(C)C(=O)N[C@@H](CCC(=O)O)C(=O)N[C@@H](Cc1ccccc1)C(=O)N[C@H](C(=O)N[C@@H](CCC(=O)O)C(=O)N[C@@H](Cc1c[nH]c2ccccc12)C(=O)N[C@@H](CC(C)C)C(=O)N[C@@H](CCCCN)C(=O)N[C@@H](CC(N)=O)C(=O)N[C@H](C(=O)NCC(=O)N1CCC[C@H]1C(=O)N[C@@H](CO)C(=O)N[C@@H](CO)C(=O)NCC(=O)N[C@@H](C)C(=O)N1CCC[C@H]1C(=O)N1CCC[C@H]1C(=O)N1CCC[C@H]1C(=O)N[C@@H](CO)C(N)=O)[C@@H](C)O)[C@@H](C)CC)C(=O)O
B3: exendin-4 peptide analogue SEQ ID NO: 24 (peptide)
peptide: Y[Aib]QGTFTSDLSIQK([γGlu-Palmitoyl])EKRAV[Aib]LFIEWLKAGGPSSGAPPPS-NH2
modifications: N-terminus assumed
SMILES: CCCCCCCCCCCCCCCC(=O)N[C@@H](CCC(=O)NCCCC[C@H](NC(=O)[C@H](CCC(N)=O)NC(=O)[C@@H](NC(=O)[C@H](CO)NC(=O)[C@H](CC(C)C)NC(=O)[C@H](CC(=O)O)NC(=O)[C@H](CO)NC(=O)[C@@H](NC(=O)[C@H](Cc1ccccc1)NC(=O)[C@@H](NC(=O)CNC(=O)[C@H](CCC(N)=O)NC(=O)C(C)(C)NC(=O)[C@@H](N)Cc1ccc(O)cc1)[C@@H](C)O)[C@@H](C)O)[C@@H](C)CC)C(=O)N[C@@H](CCC(=O)O)C(=O)N[C@@H](CCCCN)C(=O)N[C@@H](CCCNC(=N)N)C(=O)N[C@@H](C)C(=O)N[C@H](C(=O)NC(C)(C)C(=O)N[C@@H](CC(C)C)C(=O)N[C@@H](Cc1ccccc1)C(=O)N[C@H](C(=O)N[C@@H](CCC(=O)O)C(=O)N[C@@H](Cc1c[nH]c2ccccc12)C(=O)N[C@@H](CC(C)C)C(=O)N[C@@H](CCCCN)C(=O)N[C@@H](C)C(=O)NCC(=O)NCC(=O)N1CCC[C@H]1C(=O)N[C@@H](CO)C(=O)N[C@@H](CO)C(=O)NCC(=O)N[C@@H](C)C(=O)N1CCC[C@H]1C(=O)N1CCC[C@H]1C(=O)N1CCC[C@H]1C(=O)N[C@@H](CO)C(N)=O)[C@@H](C)CC)C(C)C)C(=O)O
B4: exendin-4 peptide analogue SEQ ID NO: 25 (peptide)
peptide: Y[Aib]QGTFTSDLSIQK(Palmitoyl)EKRAV[Aib]LFIEWLKAGGPSSGAPPPS-NH2
modifications: N-terminus assumed
SMILES: CCCCCCCCCCCCCCCC(=O)NCCCC[C@H](NC(=O)[C@H](CCC(N)=O)NC(=O)[C@@H](NC(=O)[C@H](CO)NC(=O)[C@H](CC(C)C)NC(=O)[C@H](CC(=O)O)NC(=O)[C@H](CO)NC(=O)[C@@H](NC(=O)[C@H](Cc1ccccc1)NC(=O)[C@@H](NC(=O)CNC(=O)[C@H](CCC(N)=O)NC(=O)C(C)(C)NC(=O)[C@@H](N)Cc1ccc(O)cc1)[C@@H](C)O)[C@@H](C)O)[C@@H](C)CC)C(=O)N[C@@H](CCC(=O)O)C(=O)N[C@@H](CCCCN)C(=O)N[C@@H](CCCNC(=N)N)C(=O)N[C@@H](C)C(=O)N[C@H](C(=O)NC(C)(C)C(=O)N[C@@H](CC(C)C)C(=O)N[C@@H](Cc1ccccc1)C(=O)N[C@H](C(=O)N[C@@H](CCC(=O)O)C(=O)N[C@@H](Cc1c[nH]c2ccccc12)C(=O)N[C@@H](CC(C)C)C(=O)N[C@@H](CCCCN)C(=O)N[C@@H](C)C(=O)NCC(=O)NCC(=O)N1CCC[C@H]1C(=O)N[C@@H](CO)C(=O)N[C@@H](CO)C(=O)NCC(=O)N[C@@H](C)C(=O)N1CCC[C@H]1C(=O)N1CCC[C@H]1C(=O)N1CCC[C@H]1C(=O)N[C@@H](CO)C(N)=O)[C@@H](C)CC)C(C)C
B5: exendin-4 peptide analogue SEQ ID NO: 26 (peptide)
peptide: Y[Aib]QGTFTSDLSIQK([γGlu-Palmitoyl])EKRAV[Aib]EFIEWLKAGGPSSGAPPPS-NH2
modifications: N-terminus assumed
SMILES: CCCCCCCCCCCCCCCC(=O)N[C@@H](CCC(=O)NCCCC[C@H](NC(=O)[C@H](CCC(N)=O)NC(=O)[C@@H](NC(=O)[C@H](CO)NC(=O)[C@H](CC(C)C)NC(=O)[C@H](CC(=O)O)NC(=O)[C@H](CO)NC(=O)[C@@H](NC(=O)[C@H](Cc1ccccc1)NC(=O)[C@@H](NC(=O)CNC(=O)[C@H](CCC(N)=O)NC(=O)C(C)(C)NC(=O)[C@@H](N)Cc1ccc(O)cc1)[C@@H](C)O)[C@@H](C)O)[C@@H](C)CC)C(=O)N[C@@H](CCC(=O)O)C(=O)N[C@@H](CCCCN)C(=O)N[C@@H](CCCNC(=N)N)C(=O)N[C@@H](C)C(=O)N[C@H](C(=O)NC(C)(C)C(=O)N[C@@H](CCC(=O)O)C(=O)N[C@@H](Cc1ccccc1)C(=O)N[C@H](C(=O)N[C@@H](CCC(=O)O)C(=O)N[C@@H](Cc1c[nH]c2ccccc12)C(=O)N[C@@H](CC(C)C)C(=O)N[C@@H](CCCCN)C(=O)N[C@@H](C)C(=O)NCC(=O)NCC(=O)N1CCC[C@H]1C(=O)N[C@@H](CO)C(=O)N[C@@H](CO)C(=O)NCC(=O)N[C@@H](C)C(=O)N1CCC[C@H]1C(=O)N1CCC[C@H]1C(=O)N1CCC[C@H]1C(=O)N[C@@H](CO)C(N)=O)[C@@H](C)CC)C(C)C)C(=O)O
B6: exendin-4 peptide analogue SEQ ID NO: 27 (peptide)
peptide: Y[Aib]QGTFTSDLSIQK([γGlu-Palmitoyl])DKRAA[Aib]LFIEWLKAGGPSSGAPPPS-NH2
modifications: N-terminus assumed
SMILES: CCCCCCCCCCCCCCCC(=O)N[C@@H](CCC(=O)NCCCC[C@H](NC(=O)[C@H](CCC(N)=O)NC(=O)[C@@H](NC(=O)[C@H](CO)NC(=O)[C@H](CC(C)C)NC(=O)[C@H](CC(=O)O)NC(=O)[C@H](CO)NC(=O)[C@@H](NC(=O)[C@H](Cc1ccccc1)NC(=O)[C@@H](NC(=O)CNC(=O)[C@H](CCC(N)=O)NC(=O)C(C)(C)NC(=O)[C@@H](N)Cc1ccc(O)cc1)[C@@H](C)O)[C@@H](C)O)[C@@H](C)CC)C(=O)N[C@@H](CC(=O)O)C(=O)N[C@@H](CCCCN)C(=O)N[C@@H](CCCNC(=N)N)C(=O)N[C@@H](C)C(=O)N[C@@H](C)C(=O)NC(C)(C)C(=O)N[C@@H](CC(C)C)C(=O)N[C@@H](Cc1ccccc1)C(=O)N[C@H](C(=O)N[C@@H](CCC(=O)O)C(=O)N[C@@H](Cc1c[nH]c2ccccc12)C(=O)N[C@@H](CC(C)C)C(=O)N[C@@H](CCCCN)C(=O)N[C@@H](C)C(=O)NCC(=O)NCC(=O)N1CCC[C@H]1C(=O)N[C@@H](CO)C(=O)N[C@@H](CO)C(=O)NCC(=O)N[C@@H](C)C(=O)N1CCC[C@H]1C(=O)N1CCC[C@H]1C(=O)N1CCC[C@H]1C(=O)N[C@@H](CO)C(N)=O)[C@@H](C)CC)C(=O)O

Biological target: human GLP-1 receptor (human, UniProt P43220 24-463)
Test: cell-based or functional assay

In order of falling “EC50 hGLP-1 R” value:
1. B2  58.3 pM
2. B4  37 pM
3. B3  19.2 pM
4. B5  17.6 pM
5. B6  14.7 pM
6. B1  7.2 pM

Biological target: T1, human GIP receptor (human, UniProt P48546 22-466)
T1 sequence (looked up): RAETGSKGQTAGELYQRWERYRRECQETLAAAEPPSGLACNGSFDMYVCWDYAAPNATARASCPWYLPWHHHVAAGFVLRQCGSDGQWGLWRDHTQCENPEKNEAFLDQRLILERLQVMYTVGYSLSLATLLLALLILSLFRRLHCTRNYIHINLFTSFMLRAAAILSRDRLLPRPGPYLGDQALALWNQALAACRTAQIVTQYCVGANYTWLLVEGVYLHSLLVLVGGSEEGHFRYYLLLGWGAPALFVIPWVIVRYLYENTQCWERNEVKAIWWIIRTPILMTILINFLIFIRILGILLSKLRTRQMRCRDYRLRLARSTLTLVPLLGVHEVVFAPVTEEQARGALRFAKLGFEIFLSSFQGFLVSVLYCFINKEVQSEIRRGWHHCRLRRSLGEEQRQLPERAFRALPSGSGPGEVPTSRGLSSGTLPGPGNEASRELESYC
Test: cell-based or functional assay

In order of rising “EC50 hGIP R” value:
1. B5  5.3 pM
2. B3  10.4 pM
3. B1  13 pM
4. B2  36.8 pM
5. B6  82.6 pM
6. B4  176 pM

Biological target: human glucagon receptor (human, UniProt P47871 26-477)
Sequence (P47871 26-477): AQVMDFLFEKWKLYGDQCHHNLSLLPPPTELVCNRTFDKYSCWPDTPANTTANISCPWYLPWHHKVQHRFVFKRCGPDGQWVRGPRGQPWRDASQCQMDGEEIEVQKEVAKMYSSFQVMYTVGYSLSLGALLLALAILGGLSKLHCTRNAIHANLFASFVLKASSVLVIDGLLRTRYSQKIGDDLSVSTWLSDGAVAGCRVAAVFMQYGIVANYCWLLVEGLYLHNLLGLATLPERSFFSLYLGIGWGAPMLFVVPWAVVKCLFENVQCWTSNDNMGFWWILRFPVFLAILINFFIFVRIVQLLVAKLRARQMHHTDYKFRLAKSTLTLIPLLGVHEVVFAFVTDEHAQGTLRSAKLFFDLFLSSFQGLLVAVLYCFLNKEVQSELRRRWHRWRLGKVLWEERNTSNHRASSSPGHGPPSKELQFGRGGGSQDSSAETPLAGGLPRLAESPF
Test: cell-based or functional assay

In order of falling “EC50 hGLUC R” value:
1. B1  15000 pM
2. B4  2030 pM
3. B5  300 pM
4. B3  284 pM
5. B6  38.9 pM
6. B2  4.8 pM
